Tests used:
[1] = test system: metastatic (Stage IV) squamous or non-squamous NSCLC; test: PFS in serum cytokine selected subsets of the trial of Example 2; format: in vivo, human; conditions: median
Method: (§1) Soluble biomarkers were retrospectively analyzed in baseline and on-treatment peripheral blood derived samples obtained from a subset of subjects enrolled in the clinical trial of Example 2. Baseline samples were obtained on day 1 of cycle 1 (CID1), prior to administration of any study drugs. On-treatment samples were obtained on day 1 of cycle 2 (C2D1), prior to administration of study drugs on that day.
(§2) Blood collected in serum separator tubes was allowed to clot for 30-60 minutes before centrifugation at 1300 g for 10 minutes to separate the serum. Serum was isolated and stored at −80° C. until cytokine analysis. Serum cytokines were quantified in multiplex assays using the Meso Scale Discovery platform following the manufacturer's protocol. Briefly, plates were coated with biotinylated capture antibodies specific to the analyte of interest bound to linkers specific to unique spots in each well of a 96-well plate. Serum samples, assessed in duplicate, were diluted 8-fold to quantify CXCL9, CXCL10, CXCL11 and IL-18 in a U-plex assay, diluted 10-fold to quantify IL-12B in a U-plex assay, and diluted 5-fold to quantify IFNγ, TNFα and IL-6 in the S-plex assay. Samples were incubated on linker/capture antibody-coated plates, followed by detection with a sulfo-tag-labelled antibody for the U-plex assays and a TURBO-tag-labelled antibody for the S-plex assay. For the S-plex assay, additional steps incorporated in the manufacturer's protocol to amplify signal with enhance solution and detection solution were followed. Following addition of read buffer, the electrochemiluminescent signal was measured on a MESO Sector S 600 instrument. Between each step of the protocol plates were washed with 0.05% Tween-PBS. A standard curve was generated for each plate using a 4-parameter logistic fit with 1/y^2 weighting. Cytokine concentrations in samples were interpolated using the standard curve, allowing quantification of the analyte of interest. Fold change from baseline was calculated as a ratio of the cytokine concentration at C2D1 over the cytokine concentration at baseline. A linear mixed model performed on log transformed raw cytokine values with baseline values as covariates assessed the difference in cytokine levels over time and between treatment groups.
Kaplan-Meier survival plots using progression-free survival data and cytokine concentrations were generated in the Jmp software, and hazard ratios were calculated between patient groups of interest. Comparisons were made for each analyte between zimberelimab monotherapy and domvanalimab combination groups both at baseline and using the fold change at C2D1 using median values to stratify patients in to low and high cytokine groups. Stratifying subjects by baseline cytokine expression (e.g., CXCL9, CXCL10, CXCL11, LL-6, TNFα) around the median value (high vs. low) enriched for clinical benefit with the addition of domvanalimab. Baseline reference values derived from the biomarker evaluable population (BEP) are as follows (high is ≥reference value, and low is <reference value): CXCL9: 278.7 pg/mL; CXCL10: 445.4 pg/mL; CXCL11:104.2 pg/mL; L-6: 15550 fg/mL; TNFα: 1194 fg/mL. Induction reference values derived from the BEP are as follows (high is ≥reference value, and low is <reference value): CXCL9: 1.76 fold change; CXCL10: 1.52 fold change; […]: 1.14 fold change IL-18: 1.1 fold change; IFNγ: 1.23 fold change.

[2] = test system: CXCL9, CXCL10, CXCL11, IL-12B, IL-18, IL-6, IFNγ, TNFα; test: Serum cytokines, Meso Scale Discovery multiplex assays, baseline and C2D1; format: in vivo, human
Method: as §1, §2

B1: zimberelimab (antibody, chains of the INN, looked up, V domains shown)
VH: QLQLQESGPGLVKPSETLTLTCTVSADSISSTTYYWVWIRQPPGKGLEWIGSISYSGSTYYNPSLKSRVTVSVDTSKNQFSLKLNSVAATDTALYYCARHLGYNGRYLPFDYWGQGTLVTVSS
VL: QSALTQPASVSGSPGQSITISCTGTSSDVGFYNYVSWYQQHPGKAPELMIYDVSNRPSGVSDRFSGSKSGNTASLTISGLQAEDEADYYCSSYTSISTWVFGGGTKLTVL
notes: zimberelimab monotherapy 360 mg IV Q3W; anti-PD-1 antibody
**Q.** With B1 as the molecule, how does the PFS ([1]; BEP (fold change from baseline to C2D1)) read?
**A.** Its PFS is 5.7 mo.

**Q.** What about the PFS ([1]; BEP for cytokine analysis (baseline samples)) of the same molecule?
**A.** The PFS was 5.6 mo.

**Q.** And the PFS ([1]; CXCL9 High Induction at C2D1 (≥1.76 fold change))?
**A.** The PFS was 2.7 mo.

**Q.** And the PFS ([1]; CXCL9 High at Baseline (≥278.7 pg/mL))?
**A.** Its PFS is 4 mo.

**Q.** What about the PFS ([1]; CXCL9 Low Induction at C2D1 (<1.76 fold change)) of the same molecule?
**A.** The PFS was 9.7 mo.

**Q.** What about the PFS ([1]; CXCL9 Low at Baseline (<278.7 pg/mL)) of the same molecule?
**A.** Its PFS is 7.6 mo.

**Q.** What about the PFS ([1]; CXCL10 High Induction at C2D1 (≥1.52 fold change)) of the same molecule?
**A.** The PFS was 2.7 mo.

**Q.** What about the PFS ([1]; CXCL10 High at Baseline (≥445.4 pg/mL)) of the same molecule?
**A.** The PFS was 5.4 mo.

**Q.** What about the PFS ([1]; CXCL10 Low Induction at C2D1 (<1.52 fold change)) of the same molecule?
**A.** The PFS was 11.7 mo.

**Q.** And the PFS ([1]; CXCL10 Low at Baseline (<445.4 pg/mL))?
**A.** The PFS was 7.6 mo.

**Q.** What about the PFS ([1]; CXCL11 High at Baseline (≥104.2 pg/mL)) of the same molecule?
**A.** The PFS was 4.9 mo.

**Q.** And the PFS ([1]; CXCL11 Low at Baseline (<104.2 pg/mL))?
**A.** Its PFS is 5.6 mo.

**Q.** And the PFS ([1]; IFNγ High Induction at C2D1 (≥1.23 fold change))?
**A.** Its PFS is 4.5 mo.

**Q.** And the PFS ([1]; IFNγ Low Induction at C2D1 (<1.23 fold change))?
**A.** The PFS was 11.7 mo.

**Q.** What about the PFS ([1]; IL-6 High at Baseline (≥15550 fg/mL)) of the same molecule?
**A.** The PFS was 1.8 mo.

**Q.** What about the PFS ([1]; IL-6 Low at Baseline (<15550 fg/mL)) of the same molecule?
**A.** The PFS was 9.6 mo.

**Q.** What about the PFS ([1]; IL-12B High Induction at C2D1 (≥1.14 fold change)) of the same molecule?
**A.** Its PFS is 9.6 mo.

**Q.** What about the PFS ([1]; IL-12B Low Induction at C2D1 (<1.14 fold change)) of the same molecule?
**A.** The PFS was 2.5 mo.

**Q.** What about the PFS ([1]; IL-18 High Induction at C2D1 (≥1.1 fold change)) of the same molecule?
**A.** Its PFS is 5.7 mo.

**Q.** What about the PFS ([1]; IL-18 Low Induction at C2D1 (<1.1 fold change)) of the same molecule?
**A.** Its PFS is 4.5 mo.

**Q.** What about the PFS ([1]; TNFα High at Baseline (≥1194 fg/mL)) of the same molecule?
**A.** Its PFS is 3.5 mo.

**Q.** And the PFS ([1]; TNFα Low at Baseline (<1194 fg/mL))?
**A.** The PFS was 5.7 mo.

**Q.** What about the “CXCL9, Fold change, median” value ([2]; C2D1 over baseline) of the same molecule?
**A.** Its value is 2.4.

**Q.** What about the “CXCL10, Fold change, median” value ([2]; C2D1 over baseline) of the same molecule?
**A.** Its value is 1.7.

**Q.** And the “CXCL11, Fold change, median” value ([2]; C2D1 over baseline)?
**A.** Its value is 1.6.

**Q.** And the “IFNγ, Fold change, median” value ([2]; C2D1 over baseline)?
**A.** Its value is 1.6.

**Q.** And the “IL-6, Fold change, median” value ([2]; C2D1 over baseline)?
**A.** Its value is 1.0.

**Q.** What about the “IL-12B, Fold change, median” value ([2]; C2D1 over baseline) of the same molecule?
**A.** Its value is 1.5.

**Q.** What about the “IL-18, Fold change, median” value ([2]; C2D1 over baseline) of the same molecule?
**A.** Its value is 1.2.

**Q.** What about the “TNFα, Fold change, median” value ([2]; C2D1 over baseline) of the same molecule?
**A.** Its value is 1.2.

**Q.** What about the “CXCL9, C2D1, median” value ([2]; day 1 of cycle 2, pre-dose) of the same molecule?
**A.** The value was 621 pg/mL.

**Q.** What about the “CXCL10, C2D1, median” value ([2]; day 1 of cycle 2, pre-dose) of the same molecule?
**A.** The value was 639 pg/mL.

**Q.** And the “CXCL11, C2D1, median” value ([2]; day 1 of cycle 2, pre-dose)?
**A.** The value was 172 pg/mL.

**Q.** What about the “IFNγ, C2D1, median” value ([2]; day 1 of cycle 2, pre-dose) of the same molecule?
**A.** Its value is 1100 fg/mL.

**Q.** What about the “IL-6, C2D1, median” value ([2]; day 1 of cycle 2, pre-dose) of the same molecule?
**A.** Its value is 14385 fg/mL.

**Q.** What about the “IL-12B, C2D1, median” value ([2]; day 1 of cycle 2, pre-dose) of the same molecule?
**A.** The value was 284 pg/mL.

**Q.** And the “IL-18, C2D1, median” value ([2]; day 1 of cycle 2, pre-dose)?
**A.** Its value is 779 pg/mL.

**Q.** And the “TNFα, C2D1, median” value ([2]; day 1 of cycle 2, pre-dose)?
**A.** Its value is 1336 fg/mL.

— patent publication US20260266828A1, “BIOMARKERS FOR PREDICTING CANCER TREATMENT EFFICACY” (Arcus Biosciences, Inc., priority 2023, published 2026)
